The values below are quoted from earlier work in paper PMC8667759.

pKd: −log10 of the molar value.

Series [1] concerns the target Cav3 (UniProt O43497).
For series [2], the target named is Piezo1 (UniProt E2JF22).
Chain of UniProt E2JF22 (E2JF22 whole entry): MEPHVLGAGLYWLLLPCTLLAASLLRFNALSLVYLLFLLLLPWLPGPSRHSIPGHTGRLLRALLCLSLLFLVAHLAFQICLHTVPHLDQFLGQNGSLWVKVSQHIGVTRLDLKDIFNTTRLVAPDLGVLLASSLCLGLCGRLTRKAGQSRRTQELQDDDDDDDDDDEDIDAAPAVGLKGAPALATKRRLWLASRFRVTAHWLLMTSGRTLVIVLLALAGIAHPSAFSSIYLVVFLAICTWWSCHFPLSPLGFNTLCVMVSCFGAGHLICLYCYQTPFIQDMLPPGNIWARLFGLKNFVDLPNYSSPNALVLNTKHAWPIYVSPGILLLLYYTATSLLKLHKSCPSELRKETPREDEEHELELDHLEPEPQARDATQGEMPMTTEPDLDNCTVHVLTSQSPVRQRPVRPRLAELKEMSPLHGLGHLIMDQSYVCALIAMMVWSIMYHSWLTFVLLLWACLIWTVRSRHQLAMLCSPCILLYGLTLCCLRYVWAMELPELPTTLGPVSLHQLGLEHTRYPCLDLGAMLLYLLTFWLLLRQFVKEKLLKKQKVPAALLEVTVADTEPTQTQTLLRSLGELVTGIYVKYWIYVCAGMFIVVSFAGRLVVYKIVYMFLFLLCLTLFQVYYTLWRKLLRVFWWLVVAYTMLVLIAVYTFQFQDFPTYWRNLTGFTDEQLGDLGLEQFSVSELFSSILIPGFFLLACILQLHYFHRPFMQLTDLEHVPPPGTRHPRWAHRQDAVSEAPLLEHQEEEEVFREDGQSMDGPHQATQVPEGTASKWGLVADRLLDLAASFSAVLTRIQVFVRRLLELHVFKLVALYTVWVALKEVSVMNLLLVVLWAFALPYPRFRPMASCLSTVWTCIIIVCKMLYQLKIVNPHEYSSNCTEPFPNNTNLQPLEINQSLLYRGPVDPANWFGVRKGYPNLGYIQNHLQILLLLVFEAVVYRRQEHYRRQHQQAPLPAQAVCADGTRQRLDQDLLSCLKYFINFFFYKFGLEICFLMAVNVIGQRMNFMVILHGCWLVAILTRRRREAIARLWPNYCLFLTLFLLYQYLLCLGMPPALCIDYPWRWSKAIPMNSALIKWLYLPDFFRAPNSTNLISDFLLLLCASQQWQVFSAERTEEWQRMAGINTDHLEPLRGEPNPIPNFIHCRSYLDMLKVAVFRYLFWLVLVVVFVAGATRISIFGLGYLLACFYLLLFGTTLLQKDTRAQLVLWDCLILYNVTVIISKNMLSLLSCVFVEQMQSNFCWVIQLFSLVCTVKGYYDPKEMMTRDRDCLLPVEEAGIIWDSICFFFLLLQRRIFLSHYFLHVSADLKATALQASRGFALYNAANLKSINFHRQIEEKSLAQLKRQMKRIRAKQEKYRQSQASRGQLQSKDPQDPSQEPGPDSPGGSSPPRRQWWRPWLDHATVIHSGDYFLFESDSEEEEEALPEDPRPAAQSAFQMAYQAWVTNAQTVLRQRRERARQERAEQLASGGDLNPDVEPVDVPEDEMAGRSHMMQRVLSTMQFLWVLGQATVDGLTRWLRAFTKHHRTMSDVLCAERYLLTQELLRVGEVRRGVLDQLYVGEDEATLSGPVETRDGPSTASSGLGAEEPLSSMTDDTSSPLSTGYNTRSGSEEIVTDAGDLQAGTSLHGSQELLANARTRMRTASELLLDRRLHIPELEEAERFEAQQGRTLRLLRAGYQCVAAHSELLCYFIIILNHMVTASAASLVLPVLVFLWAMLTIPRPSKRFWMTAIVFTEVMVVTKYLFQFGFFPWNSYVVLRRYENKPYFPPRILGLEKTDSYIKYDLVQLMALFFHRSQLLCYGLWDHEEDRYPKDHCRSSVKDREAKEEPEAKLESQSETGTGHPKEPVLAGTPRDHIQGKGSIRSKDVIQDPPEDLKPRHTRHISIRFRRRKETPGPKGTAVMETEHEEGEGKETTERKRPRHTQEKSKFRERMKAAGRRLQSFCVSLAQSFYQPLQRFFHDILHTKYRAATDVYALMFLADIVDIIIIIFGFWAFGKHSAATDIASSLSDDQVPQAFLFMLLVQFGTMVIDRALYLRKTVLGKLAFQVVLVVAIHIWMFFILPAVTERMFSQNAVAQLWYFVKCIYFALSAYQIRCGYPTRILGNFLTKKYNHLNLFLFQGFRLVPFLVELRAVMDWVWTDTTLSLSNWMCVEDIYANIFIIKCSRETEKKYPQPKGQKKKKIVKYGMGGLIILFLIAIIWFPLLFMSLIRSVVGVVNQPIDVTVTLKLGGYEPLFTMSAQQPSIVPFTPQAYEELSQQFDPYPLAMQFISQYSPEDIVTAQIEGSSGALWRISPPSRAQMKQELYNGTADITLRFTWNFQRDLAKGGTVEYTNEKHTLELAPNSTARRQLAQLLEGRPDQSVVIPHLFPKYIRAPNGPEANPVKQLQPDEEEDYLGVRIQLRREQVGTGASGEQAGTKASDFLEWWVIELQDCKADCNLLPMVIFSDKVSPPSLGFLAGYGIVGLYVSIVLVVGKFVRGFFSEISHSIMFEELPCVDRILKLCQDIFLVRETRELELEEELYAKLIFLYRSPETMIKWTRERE

Chain of UniProt O43497 (O43497 whole entry): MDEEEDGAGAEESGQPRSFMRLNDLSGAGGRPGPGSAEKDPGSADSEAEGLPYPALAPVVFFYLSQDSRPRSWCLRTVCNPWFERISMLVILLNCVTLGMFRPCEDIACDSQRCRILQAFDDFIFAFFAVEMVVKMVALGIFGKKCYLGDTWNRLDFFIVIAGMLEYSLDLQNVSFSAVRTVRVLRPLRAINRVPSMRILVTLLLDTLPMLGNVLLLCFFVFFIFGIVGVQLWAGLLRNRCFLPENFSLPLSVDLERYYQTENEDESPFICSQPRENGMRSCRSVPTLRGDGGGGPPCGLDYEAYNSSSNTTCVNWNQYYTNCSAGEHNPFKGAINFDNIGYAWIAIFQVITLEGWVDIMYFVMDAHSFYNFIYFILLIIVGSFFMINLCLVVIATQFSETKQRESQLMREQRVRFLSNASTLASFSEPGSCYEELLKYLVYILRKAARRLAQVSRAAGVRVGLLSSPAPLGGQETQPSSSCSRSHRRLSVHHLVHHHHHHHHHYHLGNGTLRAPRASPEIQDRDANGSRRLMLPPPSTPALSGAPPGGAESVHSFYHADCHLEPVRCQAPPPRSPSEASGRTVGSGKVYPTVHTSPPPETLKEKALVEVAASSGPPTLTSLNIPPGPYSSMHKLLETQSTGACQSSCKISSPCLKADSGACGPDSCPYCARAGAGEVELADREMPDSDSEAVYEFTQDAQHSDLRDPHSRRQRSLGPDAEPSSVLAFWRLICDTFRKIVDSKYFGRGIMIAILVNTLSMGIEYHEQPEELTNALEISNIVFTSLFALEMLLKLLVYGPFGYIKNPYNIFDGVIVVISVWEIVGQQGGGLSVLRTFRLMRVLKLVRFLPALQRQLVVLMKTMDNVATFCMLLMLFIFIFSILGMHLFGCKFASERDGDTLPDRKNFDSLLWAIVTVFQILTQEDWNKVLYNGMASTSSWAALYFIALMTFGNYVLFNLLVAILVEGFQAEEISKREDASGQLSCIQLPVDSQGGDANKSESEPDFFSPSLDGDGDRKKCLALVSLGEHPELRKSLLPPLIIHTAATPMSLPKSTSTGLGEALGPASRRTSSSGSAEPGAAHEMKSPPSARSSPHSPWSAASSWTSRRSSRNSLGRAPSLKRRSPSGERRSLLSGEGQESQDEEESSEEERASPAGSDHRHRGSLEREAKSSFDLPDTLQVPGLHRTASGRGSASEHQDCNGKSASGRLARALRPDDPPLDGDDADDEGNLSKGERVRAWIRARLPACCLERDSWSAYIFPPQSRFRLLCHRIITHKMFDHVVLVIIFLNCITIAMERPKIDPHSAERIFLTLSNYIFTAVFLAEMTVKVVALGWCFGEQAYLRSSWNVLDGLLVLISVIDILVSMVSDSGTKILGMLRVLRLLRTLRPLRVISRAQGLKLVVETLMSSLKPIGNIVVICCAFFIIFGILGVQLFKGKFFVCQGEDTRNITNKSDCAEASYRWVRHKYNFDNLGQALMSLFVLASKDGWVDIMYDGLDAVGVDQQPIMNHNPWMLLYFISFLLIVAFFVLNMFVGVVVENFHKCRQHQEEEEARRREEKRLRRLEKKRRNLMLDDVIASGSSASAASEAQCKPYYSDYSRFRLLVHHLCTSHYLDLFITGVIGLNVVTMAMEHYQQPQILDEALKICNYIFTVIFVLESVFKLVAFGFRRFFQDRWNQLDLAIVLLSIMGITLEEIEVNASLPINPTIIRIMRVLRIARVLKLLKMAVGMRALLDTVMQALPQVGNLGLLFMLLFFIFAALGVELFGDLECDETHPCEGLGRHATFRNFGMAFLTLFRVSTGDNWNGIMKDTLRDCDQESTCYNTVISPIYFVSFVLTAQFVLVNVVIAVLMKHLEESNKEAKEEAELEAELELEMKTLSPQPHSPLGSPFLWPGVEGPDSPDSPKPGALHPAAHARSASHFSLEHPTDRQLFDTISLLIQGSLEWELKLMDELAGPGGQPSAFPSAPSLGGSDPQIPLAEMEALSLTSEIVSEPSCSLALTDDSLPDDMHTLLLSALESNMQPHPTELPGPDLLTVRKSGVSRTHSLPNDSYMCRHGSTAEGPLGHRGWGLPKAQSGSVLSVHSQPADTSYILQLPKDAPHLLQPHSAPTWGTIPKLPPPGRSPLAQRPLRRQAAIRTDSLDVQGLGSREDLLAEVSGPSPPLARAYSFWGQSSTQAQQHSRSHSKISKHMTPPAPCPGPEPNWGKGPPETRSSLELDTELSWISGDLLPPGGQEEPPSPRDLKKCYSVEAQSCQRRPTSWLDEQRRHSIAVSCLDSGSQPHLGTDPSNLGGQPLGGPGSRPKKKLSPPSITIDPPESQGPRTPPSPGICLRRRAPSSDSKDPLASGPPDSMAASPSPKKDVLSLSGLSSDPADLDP

By pKd is commonly meant −log10 of the Kd, conventionally taken in molar units. Take Kurtoxin (from UniProt P58910): the pKd in series [1] is 7.82.
As to GsMTx4 (from UniProt Q7YT39), the pKd in series [2] was 6.81.
